Results as given in patent US20250230251A1 (Bristol-Myers Squibb, published 2025).
Changes are numbered by the printed parent chain.

T1: human IL-18Rβ on cells (human, UniProt O95256 20-599)
T1 sequence: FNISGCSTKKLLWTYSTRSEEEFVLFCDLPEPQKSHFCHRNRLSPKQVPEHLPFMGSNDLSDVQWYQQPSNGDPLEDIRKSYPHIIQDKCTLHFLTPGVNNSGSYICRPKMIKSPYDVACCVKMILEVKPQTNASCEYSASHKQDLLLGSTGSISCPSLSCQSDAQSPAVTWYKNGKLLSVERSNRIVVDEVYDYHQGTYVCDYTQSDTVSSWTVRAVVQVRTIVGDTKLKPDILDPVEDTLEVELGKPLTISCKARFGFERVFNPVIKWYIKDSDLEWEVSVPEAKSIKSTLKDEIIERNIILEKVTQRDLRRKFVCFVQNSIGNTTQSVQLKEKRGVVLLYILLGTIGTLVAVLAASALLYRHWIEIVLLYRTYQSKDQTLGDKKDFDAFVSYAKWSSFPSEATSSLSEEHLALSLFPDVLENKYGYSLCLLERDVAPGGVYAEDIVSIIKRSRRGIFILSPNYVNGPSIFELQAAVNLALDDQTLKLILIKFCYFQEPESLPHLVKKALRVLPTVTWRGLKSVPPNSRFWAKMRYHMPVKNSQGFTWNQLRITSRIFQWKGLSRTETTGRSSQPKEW

T2: huIL-18Rβ-HisAvi (human, UniProt O95256 20-356, biotinylated in the Octet blocking assay)
T2 construct: Soluble analyte in all SPR runs; captured on streptavidin sensors in the Octet assay; also called human IL-18Rβ; human IL-18Rβ-Avi-His
T2 sequence: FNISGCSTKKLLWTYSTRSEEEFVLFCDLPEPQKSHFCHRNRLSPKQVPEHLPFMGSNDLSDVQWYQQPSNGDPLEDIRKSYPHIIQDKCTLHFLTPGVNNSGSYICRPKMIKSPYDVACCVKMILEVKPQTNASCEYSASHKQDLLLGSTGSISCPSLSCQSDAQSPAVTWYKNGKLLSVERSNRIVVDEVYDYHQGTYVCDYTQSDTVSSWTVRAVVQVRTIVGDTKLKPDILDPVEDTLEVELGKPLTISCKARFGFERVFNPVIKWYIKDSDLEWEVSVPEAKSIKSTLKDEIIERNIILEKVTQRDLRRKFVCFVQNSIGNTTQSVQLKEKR

T3: cyIL-18Rβ-HisAvi (cynomolgus monkey)
T3 construct: Soluble analyte in SPR; also called cyno IL-18Rβ; cynomolgus monkey IL-18Rβ
T3 chain: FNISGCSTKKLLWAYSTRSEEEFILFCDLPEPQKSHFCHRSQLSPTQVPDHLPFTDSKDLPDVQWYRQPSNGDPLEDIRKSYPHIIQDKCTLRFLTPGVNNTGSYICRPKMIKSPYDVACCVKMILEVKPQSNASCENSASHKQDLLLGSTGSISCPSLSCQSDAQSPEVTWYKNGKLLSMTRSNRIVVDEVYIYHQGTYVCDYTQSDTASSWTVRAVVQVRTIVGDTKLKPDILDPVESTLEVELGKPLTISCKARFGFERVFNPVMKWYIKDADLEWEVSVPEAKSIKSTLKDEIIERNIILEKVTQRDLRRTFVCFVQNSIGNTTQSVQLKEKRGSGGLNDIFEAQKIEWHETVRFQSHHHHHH

B1: P20-V2 (antibody, human IgG1, kappa, V domains shown)
VH: QVQLQESGPGLVKPSETLSLTCTVSGGSINNYYWSWIRQPPGKGLEWIGYIFYSGTTNYNPSLKSRVTISVDTSKNQFSLKLSSVTAADTAVYYCARDVGIAARNSYYYVMDVWGQGTTVTVSS
VL: AIQLTQSPSSLSASVGDRVTITCRASQGISSALAWYQQKPGKAPKFLIYEGSSLESGVPSRFSGSGSGTDFTLTISSLQPEDFATYYCQQFNSYPITFGQGTRLEIKR
notes: Variant of P20
B2: P20-V3 (antibody, human IgG1, kappa, V domains shown)
VH: B1 VH
VL: B1 VL with E50G, G51A
notes: Variant of P20
B3: P20-V6 (antibody, human IgG1, kappa, name in Kabat numbering)
heavy: QVQLQESGPGLVKPSETLSLTCTVSGGSINNYYWSWIRQPPGKGLEWIGYIFYSGTTNYNPSLKSRVTISVDTSKNQFSLKLSSVTAADTAVYYCARDVGIAARNSYYYVMDVWGQGTTVTVSSASTKGPSVFPLAPSSKSTSGGTAALGCLVKDYFPEPVTVSWNSGALTSGVHTFPAVLQSSGLYSLSSVVTVPSSSLGTQTYICNVNHKPSNTKVDKRVEPKSCDKTHTCPPCPAPEAEGAPSVFLFPPKPKDTLMISRTPEVTCVVVDVSHEDPEVKFNWYVDGVEVHNAKTKPREEQYNSTYRVVSVLTVLHQDWLNGKEYKCKVSNKALPAPIEKTISKAKGQPREPQVYTLPPSREEMTKNQVSLTCLVKGFYPSDIAVEWESNGQPENNYKTTPPVLDSDGSFFLYSKLTVDKSRWQQGNVFSCSVMHEALHNHYTQKSLSLSPG
light: AIQLTQSPSSLSASVGDRVTITCRASQGISSALAWYQQKPGKAPKFLIYDASSLESGVPSRFSGSGSGTDFTLTISSLQPEDFATYYCQQFNSYPITFGQGTRLEIKRTVAAPSVFIFPPSDEQLKSGTASVVCLLNNFYPREAKVQWKVDNALQSGNSQESVTEQDSKDSTYSLSSTLTLSKADYEKHKVYACEVTHQGLSSPVTKSFNRGEC
notes: built from the chains of the parent P20 with the printed mutation

How the values were obtained:
[1] = molecular target: T1, human IL-18Rβ on cells; assay: cell-based or functional assay
[2] = molecular target: T2, huIL-18Rβ-HisAvi; assay: SPR T200, mAb on anti-hFc, 37C, pH 6
[3] = molecular target: T3, cyIL-18Rβ-HisAvi; assay: SPR T200, mAb on anti-hFc, 37C, pH 6
[4] = molecular target: T2, huIL-18Rβ-HisAvi; assay: SPR T200, mAb on anti-hFc, 37C, pH 7.4
[5] = molecular target: T3, cyIL-18Rβ-HisAvi; assay: SPR T200, mAb on anti-hFc, 37C, pH 7.4
[6] = molecular target: T2, huIL-18Rβ-HisAvi; assay: SPR T200, mAb on anti-hFc, 37C, pH 6; remark: listed apart in the source
[7] = molecular target: T3, cyIL-18Rβ-HisAvi; assay: SPR T200, mAb on anti-hFc, 37C, pH 6
[8] = molecular target: T2, huIL-18Rβ-HisAvi; assay: SPR T200, mAb on anti-hFc, 37C, pH 7.4; remark: listed apart in the source
[9] = molecular target: T3, cyIL-18Rβ-HisAvi; assay: SPR T200, mAb on anti-hFc, 37C, pH 7.4
[10] = molecular target: T1, human IL-18Rβ on cells; assay: cell-based or functional assay; remark: listed apart in the source

Row | Binder | Average IC50, LPS+IL-12 dependent IFNg production, human whole blood [1] [nM] | Kd [2] [nM] | koff [2] [s⁻¹] | kon [2] [M⁻¹ s⁻¹] | Kd [3] [nM] | koff [3] [s⁻¹] | kon [3] [M⁻¹ s⁻¹] | Kd [4] [nM] | koff [4] [s⁻¹] | kon [4] [M⁻¹ s⁻¹] | Kd [5] [nM] | koff [5] [s⁻¹] | kon [5] [M⁻¹ s⁻¹] | further results
1 | B1 | 0.37 | 0.29 | 0.00013 | 440000 | 1.4 | 0.00023 | 160000 | 0.24 | 8.9e-05 | 360000 | 0.92 | 0.00016 | 180000 | –
2 | B2 | 1.52 | 0.36 | 0.00014 | 390000 | 2.4 | 0.00042 | 180000 | 0.72 | 0.00019 | 270000 | 1.5 | 0.0003 | 200000 | –
3 | B3 | – | 0.13 | 6.8e-05 | 520000 | 0.61 | 0.00015 | 250000 | 1 | 0.00022 | 210000 | 2.9 | 0.00032 | 110000 | Kd [6]: 0.13 nM; koff [6]: 6.8e-05 s⁻¹; kon [6]: 520000 M⁻¹ s⁻¹; Kd [7]: 0.61 nM; koff [7]: 0.00015 s⁻¹; kon [7]: 250000 M⁻¹ s⁻¹; Kd [8]: 1 nM; koff [8]: 0.00022 s⁻¹; kon [8]: 210000 M⁻¹ s⁻¹; Kd [9]: 2.9 nM; koff [9]: 0.00032 s⁻¹; kon [9]: 110000 M⁻¹ s⁻¹; IC50, LPS+IL-12 dependent IFNg production, human whole blood [10]: 0.85 nM
